Residue numbers refer to the chain shown, from its start.
B1: mAb14247 (antibody)
heavy: not shown
light: QSALTQPASVSGSPGQSITISCTATSSDVGNYNYVSWYQQHPGKAPKLMIYEVSNRPSGVSNRFSGSKSGNTASLTISGLQAEDEADYYCSSYTSSSTPLVFGGGTKLTVLGQPKAAPSVTLFPPSSEELQANKATLVCLISDFYPGAVTVAWKADSSPVKAGVETTTPSKQSNNKYAASSYLSLTPEQWKSHRSYSCQVTHEGSTVEKTVAPTECS
B2: mAb15150 (antibody, V domains shown)
VH: EVQLVETGGGLIQPGGSLRLSCAAPGFIVSSNYMSWVRQAPGKGLEWVSLLYPGGSTYYADSVKGRFTISRDNSKNTLYLQMNSLRADDTAVYYCARVLPIVEDHFDYWGQGTLVTVSS
VL: DIQLTQSPSFLSASVGDRVTITCRASQGMSSYLAWYQKKPGKAPKLLIYGATILQSGVPSRFSGSGSGTEFTLTISSLQPEDFATYYCQQLNSDPLYMYTFGQGTKLEIKR
B3: mAb15170 (antibody, V domains shown)
VH: EVQLVESGGGLVQPGGSLRLSCAATGITVSSNYMSWVRQAPGKGLEWVSLIYSGGSTFYADSVKGRFTISRHNSKNTLYLQMSSLRAEDTAVYYCARDLVDFGMDVWGQGTTVTVSS
VL: DIQLTQSPSSLSASVGDRVTITCRASQGISNYLAWYQQKPGKAPKLLIYAASTLQSGVPSRFSGSGSGTDFTLTISSLQPEDFGTYYCQQLNSDSPTFGQGTKVEIKR
B4: mAb15151 (antibody, V domains shown)
VH: QVQLVESGGGVVQPGRSLRLSCAASGFVFNSYGMHWVRQAPGKGLEWVAVLWYEGSKNYYADSVKGRFTISRDNSKNTLYLQMNSLRAEDTAVYYCARHGSGSFFGYYLDYWGQGTLVTVSS
VL: DIQMTQSPSSLSASVGDRVTITCRASHNINDFLNWYQQKPGKAPRLLIYAASSLQSGVPSRFSGSGSGTDFTLTISSLQPEDFATYYCQESYTTPPTFGQGTKLEIKR
B5: mAb14280 (antibody)
heavy: not shown
light: QSALTQPPSASGSPGQSVTISCTGTSSDVGGYNFVSWYQQHPGKAPKLMIYEVSKRPSGVPDRFSGSKSGNTASLTVSGLQAEDEADYYCSSYAGSNNFVFGTGTKVTVLGQPKAAPSVTLFPPSSEELQANKATLVCLISDFYPGAVTVAWKADSSPVKAGVETTTPSKQSNNKYAASSYLSLTPEQWKSHRSYSCQVTHEGSTVEKTVAPTECS
B6: mAb14234 (antibody)
heavy: not shown
light: QSVLTQPPSVSGAPGQRVTISCTGSSSNIGIGYDVHWYQQLPGTVPKLLIYGNTNRPSGVPDRFSGSKSGTSASLAITGLQAEDEADYYCQSYDSSLSSYVFGTGTKVTVLGQPKAAPSVTLFPPSSEELQANKATLVCLISDFYPGAVTVAWKADSSPVKAGVETTTPSKQSNNKYAASSYLSLTPEQWKSHRSYSCQVTHEGSTVEKTVAPTECS
B7: mAb14230 (antibody)
heavy: not shown
light: EIVLTQSPGTLSLSPGERATLSCRASQTVISTYLAWYQQKPGQSPRLLIYGASSRATGIPDRFSGSGSGTDFTLTISRLEPEDFAVYYCQQYGSSPQLTFGGGTKVEIKRTVAAPSVFIFPPSDEQLKSGTASVVCLLNNFYPREAKVQWKVDNALQSGNSQESVTEQDSKDSTYSLSSTLTLSKADYEKHKVYACEVTHQGLSSPVTKSFNRGEC
B8: mAb14235 (antibody)
heavy: not shown
light: QSALTQPASVSGSPGQSITISCTATSSDVGTYNYVSWFQHHPGKAPKLMIYEVTNRPSGVSNRFSGSKSGNTASLTISGLQAEDEADYYCSSYTTTSIVFGGGTKLTVLGQPKAAPSVTLFPPSSEELQANKATLVCLISDFYPGAVTVAWKADSSPVKAGVETTTPSKQSNNKYAASSYLSLTPEQWKSHRSYSCQVTHEGSTVEKTVAPTECS
B9: mAb14284 (antibody)
heavy: not shown
light: B8 light with A24G, V29L, T31V, Y32F, F38Y, H40Q, T96S, I98T
notes: also called REGN14284
B10: mAb14283 (antibody)
heavy: not shown
light: QSALTQPASVSGSPGQSTTISCTGTSSDVGGYNYVSWYQQYPGKAPKLMIYDVTNRPSGVSHRFSGSKSGNTASLTISGLQAEDEADYYCSSYTSSSTVIFGGGTKLTVLGQPKAAPSVTLFPPSSEELQANKATLVCLISDFYPGAVTVAWKADSSPVKAGVETTTPSKQSNNKYAASSYLSLTPEQWKSHRSYSCQVTHEGSTVEKTVAPTECS
B11: mAb14282 (antibody)
heavy: not shown
light: QSALTQPASVSGSPGQSITISCTGTSSDVGSYNLVSWYQQHPGKAPKLMIYELTKRPSGVSNRFSGSKSGNTASLTISGLQAEDEADYYCSSYRGSVTDVVFGGGTKLTVLGQPKAAPSVTLFPPSSEELQANKATLVCLISDFYPGAVTVAWKADSSPVKAGVETTTPSKQSNNKYAASSYLSLTPEQWKSHRSYSCQVTHEGSTVEKTVAPTECS
B12: mAb14281 (antibody)
heavy: not shown
light: SSELTQDPAVSVALGQTVRITCQGDSLRSYYASWYQQKPGQAPVLVIYDKNNRPSGIPDRFSGSSSGNTASLTITGAQAEDEADYYCNSRDSSRNHLVVFGGGTKLTVLGQPKAAPSVTLFPPSSEELQANKATLVCLISDFYPGAVTVAWKADSSPVKAGVETTTPSKQSNNKYAASSYLSLTPEQWKSHRSYSCQVTHEGSTVEKTVAPTECS
B13: mAb15166 (antibody, V domains shown)
VH: EVQLVESGGGLVQPGGSLRLSCAASGFTVTSNYMSWVRQAPGKGLEWVSAIYSGESTYYADSVKGRFTISRDSSKNTLYLQMNSLRVEDTAVYYCASIHDYSNYVGGFDPWGQGTLVTVSS
VL: QSALTQPASVSGSPGQSITISCTGPSSDFGSYNLVSWYQQHPGKAPKLMIYEGTKRPSGVSNRFSGSKSGNTASLTISGLQAEDEADYYCSSYAGSSTWVFGGGTKLTVLG
B14: mAb13458 (antibody)
heavy: not shown
light: AIQMTQSPSSLSASVGDRVTITCRASQDIRNDLGWYQQKPGKAPKLLIYSASSLQTGVPSRFSGSGSGTDFTLTISSLHPEDFATYYCLQDYWYTWTFGQGTKVEIKRTVAAPSVFIFPPSDEQLKSGTASVVCLLNNFYPREAKVQWKVDNALQSGNSQESVTEQDSKDSTYSLSSTLTLSKADYEKHKVYACEVTHQGLSSPVTKSFNRGEC

Experiments:
[1] = target: human FcγR3a 176Val allotype receptor (human, UniProt P08637 17-254); assay: cell-based or functional assay
SARS-COV-2 RBD-MMH [2] = target: SARS-COV-2 RBD-MMH (SARS-CoV-2); assay: SPR 37C, run with dissociation at pH 7.4
SARS-COV-2 RBD-MMH [3] = target: SARS-COV-2 RBD-MMH (SARS-CoV-2); assay: SPR 37C, run with dissociation at pH 5.0
SARS-COV-2 RBD-MMH [4] = target: SARS-COV-2 RBD-MMH (SARS-CoV-2); assay: SPR 37C

Binder | EC50 (M), Jurkat/CD20/spike [1] [M] | Fold induction, Jurkat CD20 [1] [fold] | Fold induction, Jurkat/CD20/spike [1] [fold] | RBD.mmh Bound at pH 7.4 (RU) (SARS-COV-2 RBD-MMH [2]) | koff (SARS-COV-2 RBD-MMH [2]) [s⁻¹] | RBD.mmh Bound at pH 7.4 (RU) (SARS-COV-2 RBD-MMH [3]) | koff (SARS-COV-2 RBD-MMH [3]) [s⁻¹] | t½ (SARS-COV-2 RBD-MMH [3]) [min] | t½ Ratio of pH 7.4 to pH 5.0 (SARS-COV-2 RBD-MMH [4])
B1 | 1.79e-10 | 1 | 11.3 | 40.8 | 0.00158 | 51.9 | 0.00191 | 6.1 | 1.2
B2 | – | – | – | 87.8 | 0.000112 | 92.6 | 1e-05 | 1160 | 0.1
B3 | – | – | – | 120 | 0.000107 | 141 | 6.62e-05 | 174 | 0.6
B4 | – | – | – | 219 | 0.0068 | 231 | 0.00439 | 2.6 | 0.6
B5 | 2.67e-10 | 1.1 | 13.5 | 72.4 | 0.024 | 61.7 | 0.0103 | 1.1 | 0.5
B6 | 2.69e-10 | 1.1 | 12.6 | 37.9 | 0.00221 | 40.4 | 0.00166 | 7 | 0.7
B7 | 1.79e-10 | 1.1 | 9.8 | 67.6 | 0.00771 | 60.3 | 0.00924 | 1.3 | 1.2
B8 | 1.43e-10 | 1 | 10.8 | 71.2 | 0.00148 | 80.8 | 0.00119 | 9.7 | 0.8
B9 | 1.56e-10 | 1.1 | 9 | 147 | 0.000624 | 159 | 0.000736 | 15.7 | 1.2
B10 | 1.39e-10 | 1.1 | 9.1 | 87.7 | 0.00169 | 91.7 | 0.00512 | 2.3 | 3
B11 | 2.57e-10 | 1.1 | 10.7 | 73.5 | 0.0126 | 62.4 | 0.00671 | 1.7 | 0.5
B12 | 1.65e-10 | 1.1 | 10.3 | 83.5 | 0.00659 | 51.7 | 0.0117 | 1 | 1.8
B13 | – | – | – | 65.2 | 0.03 | 60 | 0.035 | 0.3 | 1.2
B14 | 1.43e-10 | 1.2 | 10.2 | 96.5 | 0.00161 | 90.9 | 0.00401 | 2.9 | 2.5

— patent US20260069689A1 (Regeneron, published 2026)
